Laboratory results as given in patent US20140294817A1 (LEUKOSIGHT, published 2014).

Tests used:
[1] = target: T1, Fcγ-receptor III (mice, UniProt P08508 31-261); assay: flow cytometry saturation binding on HeLa cells expressing FcγRIII; reference rabbit IgG
T1 construct: whole, on cells; HeLa cells transfected with an FcγRIII plasmid, RFP-tagged; also called FcγRIII; not shown: red fluorescent protein tag (RFP) attached to the intracellular portion
T1 sequence (looked up): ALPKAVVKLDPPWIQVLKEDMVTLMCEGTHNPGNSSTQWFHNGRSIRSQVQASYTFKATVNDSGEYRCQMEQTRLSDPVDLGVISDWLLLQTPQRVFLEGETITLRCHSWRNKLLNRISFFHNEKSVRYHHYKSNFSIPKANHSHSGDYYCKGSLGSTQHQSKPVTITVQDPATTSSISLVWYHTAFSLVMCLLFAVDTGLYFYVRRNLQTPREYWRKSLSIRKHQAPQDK
From the text: (§1) There are four Fc-gamma receptors (FcγRs) in mice including: Fcγ-receptor I, Fcγ-receptor III, Fcγ-receptor IV, and Fcγ-receptor IIb. The genes for each of the Fcγ-receptor I, Fcγ-receptor III, Fcγ-receptor IV, and Fcγ-receptor IIb were cloned into four separate plasmids. […] A red fluorescent protein tag (RFP) is attached to the intracellular portion of the FcγR (FIG. 56A). Thus, binding to the FcγR of a transfected HeLa cell will result in a signal transduction that causes the cells to fluoresce red, which may be measured by flow cytometry.
(§2) Polypeptides comprising a first and second Fc fragment of rabbit IgG in dimeric form and whole rabbit IgG were quantified by ELISA, using the whole rabbit IgG as the standards. HeLa cells that express FcγRI, HeLa cells that express FcγRIIb, HeLa cells that express FcγRIII, and HeLa cells that express FcγRIV as described in Example 13 were stained with 2-fold series diluted either with polypeptides comprising a first and second Fc fragment of rabbit IgG in dimeric form or whole rabbit IgG. The cells were then stained with Zenon Alexa Fluor 488 rabbit IgG labeling kits. […] The HeLa cells that express FcγRI, HeLa cells that express FcγRIIb, HeLa cells that express FcγRIII, and HeLa cells that express FcγRIV were gated by red fluorescence (RFP); and the mean fluorescence of Alexa Fluor was measured for the Saturation Binding Curves (FIGS. 61A-D).

[2] = target: T2, Fcγ-receptor IIb (mice, UniProt P08101 30-330); assay: flow cytometry saturation binding on HeLa cells expressing RFP-tagged FcγRIIb (FIG. 61B, left panel)
T2 construct: whole, on cells; HeLa cells transfected with an FcγRIIb plasmid, RFP-tagged; also called FcγRIIb; not shown: red fluorescent protein tag (RFP) attached to the intracellular portion
T2 sequence (looked up): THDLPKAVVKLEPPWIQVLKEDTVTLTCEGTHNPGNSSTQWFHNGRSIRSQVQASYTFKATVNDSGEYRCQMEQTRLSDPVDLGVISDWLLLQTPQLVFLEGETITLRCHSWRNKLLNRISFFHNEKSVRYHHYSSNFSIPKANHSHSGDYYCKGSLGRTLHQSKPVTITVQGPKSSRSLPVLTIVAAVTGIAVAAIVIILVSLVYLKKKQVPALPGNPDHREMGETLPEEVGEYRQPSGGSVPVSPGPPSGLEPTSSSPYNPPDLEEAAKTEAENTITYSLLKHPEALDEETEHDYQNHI
From the text: as §1, §2

[3] = target: T2, Fcγ-receptor IIb; assay: flow cytometry saturation binding on HeLa cells expressing FcγRIIb; reference rabbit IgG
From the text: as §1, §2

[4] = target: T3, Fcγ-receptor I (mice, UniProt P26151 25-404); assay: flow cytometry saturation binding on HeLa cells expressing RFP-tagged FcγRI (FIG. 61A, left panel)
T3 construct: whole, on cells; HeLa cells transfected with an FcγRI plasmid, RFP-tagged; also called FcγRI; not shown: red fluorescent protein tag (RFP) attached to the intracellular portion
T3 sequence (looked up): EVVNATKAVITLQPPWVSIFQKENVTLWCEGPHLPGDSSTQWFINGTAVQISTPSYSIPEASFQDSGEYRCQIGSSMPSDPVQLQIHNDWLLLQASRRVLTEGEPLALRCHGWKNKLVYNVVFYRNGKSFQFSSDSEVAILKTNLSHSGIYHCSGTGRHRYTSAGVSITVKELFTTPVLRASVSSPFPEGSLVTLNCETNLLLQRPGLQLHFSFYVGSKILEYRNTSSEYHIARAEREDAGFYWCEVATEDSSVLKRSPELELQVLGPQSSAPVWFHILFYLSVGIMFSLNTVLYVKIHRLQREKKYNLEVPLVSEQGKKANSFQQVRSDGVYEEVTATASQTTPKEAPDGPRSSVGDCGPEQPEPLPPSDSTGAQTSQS
From the text: as §1, §2

[5] = target: T3, Fcγ-receptor I; assay: flow cytometry saturation binding on HeLa cells expressing FcγRI; reference rabbit IgG
From the text: as §1, §2

[6] = target: T4, Fcγ-receptor IV (mice); assay: flow cytometry saturation binding on HeLa cells expressing FcγRIV; reference rabbit IgG
T4 construct: whole, on cells; HeLa cells transfected with an FcγRIV plasmid, RFP-tagged; also called FcγRIV
T4 sequence (A0A0B4J1G0 whole entry, looked up): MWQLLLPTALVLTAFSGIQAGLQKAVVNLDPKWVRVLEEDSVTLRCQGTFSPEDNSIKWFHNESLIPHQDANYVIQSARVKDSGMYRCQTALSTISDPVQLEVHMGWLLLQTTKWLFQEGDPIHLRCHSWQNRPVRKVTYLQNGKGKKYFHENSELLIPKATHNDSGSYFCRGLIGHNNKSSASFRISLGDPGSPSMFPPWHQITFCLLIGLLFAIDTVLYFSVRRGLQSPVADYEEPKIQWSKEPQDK
From the text: as §1, §2

[7] = target: T1, Fcγ-receptor III; assay: flow cytometry saturation binding on HeLa cells expressing RFP-tagged FcγRIII (FIG. 61C, left panel)
From the text: as §1, §2

[8] = target: T4, Fcγ-receptor IV; assay: flow cytometry saturation binding on HeLa cells expressing RFP-tagged FcγRIV (FIG. 61D, left panel)
From the text: as §1, §2

B1: polypeptide comprising a first and second Fc fragment of rabbit IgG in dimeric form (Fc fusion)
chain: GGSHHHHHHGMASMTGGQQMGRDLYDDDDKAPSTCSKPTCPPPELLGGPSVFIFPPKPKDTLMISRTPEVTCVVVDVSQDDPEVQFTWYINNEQVRTARPPLREQQFNSTIRVVSTLPIAHQDWLRGKEFKCKVHNKALPAPIEKTISKARGQPLEPKVYTMGPPREELSSRSVSLTCMINGFYPSDISVEWEKNGKAEDNYKTTPAVLDSDGSYFLYSKLSVPTSEWQRGDVFTCSVMHEALHNHYTQKSISRSPGKDIVRSSKPTCPPPELLGGPSVFIFPPKPKDTLMISRTPEVTCVVVDVSQDDPEVQFTWYINNEQVRTARPPLREQQFNSTIRVVSTLPIAHQDWLRGKEFKCKVHNKALPAPIEKTISKARGQPLEPKVYTMGPPREELSSRSVSLTCMINGFYPSDISVEWEKNGKAEDNYKTTPAVLDSDGSYFLYSKLSVPTSEWQRGDVFTCSVMHEALHNHYTQKSISRSPGK
notes: The supernatants hold monomeric and dimeric forms; also called dimeric polypeptides; polypeptides in dimeric form
- fold enhancement of binding against rabbit IgG [1]: ≥ 223 fold
- Kd [2]: ≤ 9.8 nM
- fold enhancement of binding against rabbit IgG [3]: ≥ 61.7 fold
- Kd [4]: ≤ 3.5 nM
- fold enhancement of binding against rabbit IgG [5]: ≥ 57.5 fold
- fold enhancement of binding against rabbit IgG [6]: ≥ 191 fold
- Kd [7]: ≤ 10.4 nM
- Kd [8]: ≤ 6.3 nM
